Patent publication US20110301098A1, “TREATMENT FOR INTIMAL HYPERPLASIA AND RELATED CONDITIONS” (priority 2006, published 2011)
Read-outs that look alike come from different tables or passages of the source. Positions of bridges follow the written chain, without caps; N, C: chain ends. Non-standard residues stand in square brackets, D forms with d. Residues, ends and D or L forms follow the SMILES beside them. *: point of attachment. Hydrocinnamoyl = O=C(CCc1ccccc1)*; dCha = N[C@H](CC1CCCCC1)C(=O)O; Orn = NCCC[C@H](N)C(=O)O

Columns and labels:
C5a receptor [1] = biological target: T1, C5a receptor (Mus musculus, UniProt P30993); experiment: C5a receptor antagonist treatment in the ApoE-/- mouse vein graft model
T1 sequence (P30993 1-351): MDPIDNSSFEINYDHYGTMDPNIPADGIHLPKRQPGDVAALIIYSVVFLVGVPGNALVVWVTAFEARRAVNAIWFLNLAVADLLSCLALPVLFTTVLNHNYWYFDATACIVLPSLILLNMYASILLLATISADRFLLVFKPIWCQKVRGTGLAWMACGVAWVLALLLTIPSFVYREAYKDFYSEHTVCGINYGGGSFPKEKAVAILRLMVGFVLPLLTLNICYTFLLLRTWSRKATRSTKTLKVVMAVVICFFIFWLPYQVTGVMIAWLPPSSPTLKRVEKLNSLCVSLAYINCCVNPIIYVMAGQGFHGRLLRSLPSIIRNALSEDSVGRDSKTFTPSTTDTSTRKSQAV
Procedure: (§1) Male ApoE^−/− mice, aged between 12 and 16 weeks, were used for all experiments. Mice were fed a standard chow diet, and received water and food ad libitum. Before surgery, mice were anesthetized by an intra-peritoneal injection with Midazolam (5 mg/kg, Roche), Medetomidine (0.5 mg/kg, Orion) and Fentanyl (0.05 mg/kg, Janssen). Cholesterol levels in serum were determined at the time of sacrifice.
(§2) Briefly, caval veins were harvested from genetically identical donor mice, and were preserved before implantation at 4° C. in 0.9% NaCl containing 100 U/ml of heparin. In the graft recipient, the right carotid artery was dissected and cut in the middle. A polyethylene cuff was placed at both ends of the artery. The artery was everted around the cuff and ligated with a silk 8.0 suture. The caval vein was sleeved over the two cuffs and ligated. Successful engraftment was confirmed by the presence of pulsations and turbulent blood flow within the vein graft. The whole procedure usually takes about 30 minutes.
(§3) Cross-sections of vein grafts were stained with hematoxylin-phloxine-saffron, using conventional methods. The intimal hyperplasia surface of the thickened vein grafts was measured using image analysis software (Qwin, Leica). For each vein graft, six equally spaced cross-sections were used to determine the degree of vessel wall thickening.
(§4) To identify macrophages and macrophage-derived foam cells, immunohistochemistry was performed using AIA31240 primary antibodies against mouse macrophages (1:3000, Accurate Chemical). The contribution of macrophages and foam cells to the intimal hyperplasia was measured by computer-assisted analysis (Qwin, Leica) as the area stained with antibody AIA31240, and expressed as a percentage of the total intimal hyperplasia surface.
(§5) In order to inhibit C5a function, 21 mice were randomly divided in to three groups, and were treated with the cyclic peptide C5a antagonists AcF-[OP-(D-Cha)WR] (AcF) or hydrocinnamate-[OP-(D-Cha)WR] (HC). […]

C5a receptor [2] = biological target: T1, C5a receptor; details: in vivo
Procedure: as §1, §2, §3, §4, §5

PDGF receptor = details: pretreatment of the vein grafts; cited from earlier work
vein grafts = experiment: Recombinant C5a applied to vein grafts in hypercholesterolaemic ApoE-/- mice; format: in vivo, mouse; details: for intimal hyperplasia surface: control 0.24±0.02; for macrophage/foam cell content of intimal hyperplasia: control 17±2%
Procedure: 153: 1301-1310. […] The whole procedure usually takes about 30 minutes.
To examine the involvement of C5a in the development of vein graft thickening, we applied recombinant C5a in two concentrations (0.5 μg and 5 μg, dissolved in 100 μl 20% Pluronic gel, n=7 per group,) directly to the vein graft at the time of surgery. In the control group 100 μl of 20% Pluronic gel without C5a was applied.
Twenty-one mice were randomly divided into three groups. In the treatment groups, either 0.5 μg or 5 μg of E. coli-derived recombinant mouse C5a (HyCult Biotechnology) was dissolved in 0.1 ml of 20% Pluronic gel, and applied around the venous interposition at the time of surgery. In the control group 0.1 ml of 20% Pluronic gel was applied without C5a. Mice were sacrificed after 28 days.

CC(=O)N[C@@H](Cc1ccccc1)C(=O)N[C@H]1CCCNC(=O)[C@H](CCCNC(=N)N)NC(=O)[C@H](Cc2c[nH]c3ccccc23)NC(=O)[C@@H](CC2CCCCC2)NC(=O)[C@@H]2CCCN2C1=O [AcF, AcF-[OP-(D-Cha)WR]]
decrease in vein graft thickening compared to control mice (C5a receptor [1]; 3 mg/kg/day s.c., 28 days after surgery): 53% | body weight or serum cholesterol (C5a receptor [1]; between the different treatment groups): No differences

N=C(N)NCCC[C@@H]1NC(=O)[C@H](Cc2c[nH]c3ccccc23)NC(=O)[C@@H](CC2CCCCC2)NC(=O)[C@@H]2CCCN2C(=O)[C@@H](NC(=O)CCc2ccccc2)CCCNC1=O [HC, hydrocinnamate-[OP-(D-Cha)WR]] (Hydrocinnamoyl-[Orn]P[dCha]WR; lactam 1-C)
body weight or serum cholesterol (C5a receptor [2]): No differences

Cc1ccc(C(=O)Nc2ccc(S(=O)(=O)O)c3cc(S(=O)(=O)O)cc(S(=O)(=O)O)c23)cc1NC(=O)c1cccc(NC(=O)Nc2cccc(C(=O)Nc3cc(C(=O)Nc4ccc(S(=O)(=O)O)c5cc(S(=O)(=O)O)cc(S(=O)(=O)O)c45)ccc3C)c2)c1 [Suramin]
neointimal hyperplasia (PDGF receptor): significant reduction

B1: C5a: E. coli-derived recombinant mouse C5a (HyCult Biotechnology) (protein, UniProt P06684 679-755, looked up)
C5a anaphylatoxin: NLHLLRQKIEEQAAKYKHSVPKKCCYDGARVNFYETCEERVARVTIGPLCIRAFNECCTIANKIRKESPHKPVQLGR
modifications: C5a anaphylatoxin
intimal hyperplasia surface (vein grafts; 0.5 μg C5a in 20% Pluronic gel applied to vein graft at surgery, 28 days): 0.29±0.03 mm^2 | macrophage/foam cell content of intimal hyperplasia (vein grafts; 0.5 μg C5a, 28 days): 22±3% | body weight and serum cholesterol (vein grafts; 0.5 μg and 5 μg C5a vs control): did not differ | luminal area (vein grafts; 0.5 μg and 5 μg C5a vs control, 28 days): No significant differences | intimal hyperplasia surface (vein grafts; 5 μg C5a in 20% Pluronic gel applied to vein graft at surgery, 28 days): 0.41±0.04 mm^2 | macrophage/foam cell content of intimal hyperplasia (vein grafts; 5 μg C5a, 28 days): 33±2%
